Experimental data published in US20150094211, “POLYMERASE COMPOSITIONS, METHODS OF MAKING AND USING SAME” (LIFE TECHNOLOGIES CORPORATION, published 2015).
Numbering of substitutions follows the chain as printed.

Experiments:
Conditions in all cases: label: fluorescein-dT at N (position 34); hairpin with 5' overhang
[1] = target: T1, Bst DNA polymerase F448K (labelled 488K in the text for FIG. 2) (F448K); experiment: dissociation time constant at varying salt; values only in figure; mutation printed as 488K and F448K
T1 chain: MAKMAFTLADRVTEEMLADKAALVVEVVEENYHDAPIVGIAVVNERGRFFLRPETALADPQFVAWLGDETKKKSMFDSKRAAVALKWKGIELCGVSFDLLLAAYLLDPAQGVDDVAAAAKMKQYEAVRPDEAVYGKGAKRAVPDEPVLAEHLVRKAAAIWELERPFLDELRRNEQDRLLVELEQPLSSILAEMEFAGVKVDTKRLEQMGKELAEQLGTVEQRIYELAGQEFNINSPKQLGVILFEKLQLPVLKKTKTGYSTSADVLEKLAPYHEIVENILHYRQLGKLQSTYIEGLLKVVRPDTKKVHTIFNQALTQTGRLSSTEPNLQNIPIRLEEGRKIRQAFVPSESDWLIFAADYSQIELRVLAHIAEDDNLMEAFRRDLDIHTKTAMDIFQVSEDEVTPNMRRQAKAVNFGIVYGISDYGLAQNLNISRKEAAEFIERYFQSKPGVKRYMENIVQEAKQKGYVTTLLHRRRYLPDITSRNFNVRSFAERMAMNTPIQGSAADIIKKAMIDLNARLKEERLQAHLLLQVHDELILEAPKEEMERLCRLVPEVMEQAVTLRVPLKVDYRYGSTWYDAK
Experimental: (§1) Dissociation is measured by the decrease in fluorescence that occurs when the Bst polymerase dissociates from the template. Dissociation is initiated by adding a vast excess of unlabeled, competitor DNA (hairpin oligo 173) having the following nucleotide sequence:
(§2) To perform the assay, reactions (75 μl) containing 30 mM Tris (pH 7.5), 20 mM NaCl, 50 nM oligo 221, and ˜10-200 nM partially polymerase samples (prepared according to Example 1) were assembled in 96-well plates. Baseline readings were then taken on the spectrophotometer using 490 nm excitation and 525 nm emission wavelengths. The 173 competitor oligo (2 μM final concentration) was then rapidly added to each well and plates were rapidly returned to the spectrophotometer for readings every 30 seconds for 5 minutes. The dissociation rate was calculated by fitting the data to a one-phase exponential decay equation using PrismGraph® according to the following formula: […]

[2] = target: Taq DNA polymerase D732R (LR1 Taq) (UniProt P19821 SEQ:1-832, D732R); experiment: fluorescence dissociation with excess hairpin oligo 173 competitor (SEQ 22); 30 mM Tris pH 7.5, 20 mM NaCl; mutant dissociates slower
Sequence of Taq DNA polymerase D732R (LR1 Taq) (P19821 whole entry D732R): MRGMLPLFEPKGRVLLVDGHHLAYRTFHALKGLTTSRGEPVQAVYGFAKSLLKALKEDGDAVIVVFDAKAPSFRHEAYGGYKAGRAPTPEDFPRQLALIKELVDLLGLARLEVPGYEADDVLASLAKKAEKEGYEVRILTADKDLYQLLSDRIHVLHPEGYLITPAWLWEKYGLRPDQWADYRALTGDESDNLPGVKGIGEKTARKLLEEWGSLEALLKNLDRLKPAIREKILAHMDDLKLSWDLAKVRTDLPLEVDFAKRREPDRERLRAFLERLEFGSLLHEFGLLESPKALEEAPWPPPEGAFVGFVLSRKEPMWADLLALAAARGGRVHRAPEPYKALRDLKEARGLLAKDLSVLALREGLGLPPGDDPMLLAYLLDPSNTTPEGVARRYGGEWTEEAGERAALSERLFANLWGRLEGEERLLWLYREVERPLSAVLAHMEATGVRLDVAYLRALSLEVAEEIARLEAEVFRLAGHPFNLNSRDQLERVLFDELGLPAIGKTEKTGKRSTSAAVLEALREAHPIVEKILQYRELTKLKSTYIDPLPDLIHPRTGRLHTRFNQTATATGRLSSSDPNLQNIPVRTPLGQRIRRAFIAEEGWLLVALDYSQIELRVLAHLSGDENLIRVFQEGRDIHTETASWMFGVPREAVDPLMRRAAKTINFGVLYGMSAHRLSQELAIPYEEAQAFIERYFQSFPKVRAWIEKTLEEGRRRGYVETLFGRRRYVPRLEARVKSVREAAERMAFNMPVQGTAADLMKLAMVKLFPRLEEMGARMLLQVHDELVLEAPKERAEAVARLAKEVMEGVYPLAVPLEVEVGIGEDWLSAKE
Experimental: as §2
(§3) Various exemplary mutations were introduced via site-directed mutagenesis into an exemplary reference polymerase (wild-type Taq DNA polymerase SEQ ID NO: 15) to generate a series of modified Taq DNA polymerases. In this example, reference polymerase, SEQ ID NO: 15 was modified to contain a single amino acid mutation selected from D732R, E745Q or E471K. Each modified polymerase was sequence verified, and expressed essentially according to Example 1. The modified polymerases were then assayed to measure dissociation rate constant essentially according to Example 2.

[3] = target: T2, Bst DNA polymerase D480R (LR1; D775R in full-length numbering) (D480R); experiment: as above
T2 chain: T1 chain with K448F, D480R
Experimental: as §2
(§4) Various exemplary mutations were introduced via site-directed mutagenesis into exemplary reference polymerases to generate modified polymerases. In this example, reference polymerase SEQ ID NO: 2 was modified to contain a further amino acid mutation (D480R). Reference polymerase SEQ ID NO: 15 was also modified to contain a further amino acid mutation (D732R). Additionally, reference polymerase SEQ ID NO: 18 was modified to contain amino acid mutation (D505R). The modified polymerases were sequence verified, and expressed essentially according to the procedure of Example 1. The modified polymerases were then assayed to measure dissociation rate constant essentially according to the procedure of Example 2.

[4] = target: Klenow fragment D505R (LR1) (UniProt P00582 SEQ:2-606, D505R); experiment: as above
Experimental: as §2, §4

[5] = target: Taq DNA polymerase E471K (UniProt P19821 SEQ:1-832, E471K); experiment: fluorescence dissociation with excess hairpin oligo 173 competitor (SEQ 22); mutant dissociates slower
Sequence of Taq DNA polymerase E471K (P19821 whole entry E471K): as the sequence (P19821 whole entry D732R) above, with E471K, R732D counted along it
Experimental: as §2, §3

[6] = target: Taq DNA polymerase E745Q (UniProt P19821 SEQ:1-832, E745Q); experiment: as above
Sequence of Taq DNA polymerase E745Q (P19821 whole entry E745Q): as the sequence (P19821 whole entry D732R) above, with R732D, E745Q counted along it
Experimental: as §2, §3

[7] = target: Klenow fragment (wild type) (UniProt P00582 SEQ:2-606); experiment: reference; dissociates 13-fold faster than D505R; rate constant only in figure
[8] = target: T3, Bst DNA polymerase D144K (D144K); experiment: dissociation time constant at varying salt; values only in figure
T3 chain: T1 chain with D144K, K448F
Experimental: as §1, §2

[9] = target: T4, Bst DNA polymerase G425R (G425R); experiment: as above
T4 chain: T1 chain with G425R, K448F
Experimental: as §1, §2

[10] = target: T5, Bst DNA polymerase large fragment (Bst 1.0, reference); experiment: reference; dissociates 4.7-fold faster than D480R; rate constant only in figure
T5 chain: T1 chain with K448F

For TTTTTTTGCAGGTGACAGGTTTTTCCTGTCACCTGC (structured_DNA, [fluorescein-dT at 34]) [oligo 221], the binding result [1] was “binds”, the binding signal [2] was 14.1 fold (koff wt/koff mutant) and the binding signal [3] was 4.7 fold (koff reference/koff mutant). The binding signal [4] was 13 fold (koff wt/koff mutant), the binding signal [5] was 5 fold (koff wt/koff mutant) and the binding signal [6] was 4.7 fold (koff wt/koff mutant). TTTTTTTGCAGGTGACAGGTTTTTCCTGTCACCTGC (structured_DNA, [fluorescein-dT at 34]) [oligo 221]: binds [7]; binds [8]; binds [9]. TTTTTTTGCAGGTGACAGGTTTTTCCTGTCACCTGC (structured_DNA, [fluorescein-dT at 34]) [oligo 221]: binds [10].
